Laboratory results taken from patent US20190071668, “COMPOSITIONS AND METHODS FOR IDENTIFICATION, ASSESSMENT, PREVENTION, AND TREATMENT OF CANCER USING SLNCR ISOFORMS” (Dana-Farber Cancer Institute, Inc., published 2019).

Target: Androgen receptor (AR) (UniProt P10275 P10275:1-920)
Test: EMSA

Chain of Androgen receptor (AR) (P10275 whole entry, one chain of several): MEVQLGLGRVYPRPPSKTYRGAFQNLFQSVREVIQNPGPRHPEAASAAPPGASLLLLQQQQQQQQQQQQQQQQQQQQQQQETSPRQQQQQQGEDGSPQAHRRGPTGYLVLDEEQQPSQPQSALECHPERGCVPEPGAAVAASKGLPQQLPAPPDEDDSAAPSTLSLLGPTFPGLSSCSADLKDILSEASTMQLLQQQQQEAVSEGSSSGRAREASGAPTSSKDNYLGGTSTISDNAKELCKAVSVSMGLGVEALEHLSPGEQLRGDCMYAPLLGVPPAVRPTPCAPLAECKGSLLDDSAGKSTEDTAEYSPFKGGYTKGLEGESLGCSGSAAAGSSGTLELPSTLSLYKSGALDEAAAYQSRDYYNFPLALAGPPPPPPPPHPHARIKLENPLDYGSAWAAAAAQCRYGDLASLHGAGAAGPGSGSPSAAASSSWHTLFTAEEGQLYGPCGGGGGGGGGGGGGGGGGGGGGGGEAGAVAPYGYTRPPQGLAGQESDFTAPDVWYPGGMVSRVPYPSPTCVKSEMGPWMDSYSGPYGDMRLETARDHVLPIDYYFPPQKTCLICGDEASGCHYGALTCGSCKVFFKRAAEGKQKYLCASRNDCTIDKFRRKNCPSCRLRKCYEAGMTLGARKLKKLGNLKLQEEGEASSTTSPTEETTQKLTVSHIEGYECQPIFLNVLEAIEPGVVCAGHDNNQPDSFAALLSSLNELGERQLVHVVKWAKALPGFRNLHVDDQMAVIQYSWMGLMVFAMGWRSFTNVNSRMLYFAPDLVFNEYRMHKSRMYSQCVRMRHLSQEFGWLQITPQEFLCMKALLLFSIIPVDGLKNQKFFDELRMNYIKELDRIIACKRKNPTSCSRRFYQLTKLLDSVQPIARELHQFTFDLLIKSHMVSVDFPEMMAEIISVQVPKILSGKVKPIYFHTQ

Binding result, no binding:
UUCUUUCUUUCUUUCUUUCU (ssRNA) [(UUCU)5]
CCCUCCCUCCCUCCCUCCCU (ssRNA) [(CCCU)5]
UCUCUCUCUCUCUCUCUCUC (ssRNA) [(UC)10]
